Biological target: TNFα (Examples 10 and 11)
Experiment: cell-based or functional assay

Substance	SEAP activity (NFκB/AP-1 reporter) in HEK-Blue Dectin2 cells, reduction against TNFα plus irrelevant protein
TNFR2-Fc-Clec7a chimeric protein (Examples 10 and 11) (Fc fusion; the values are: fold reduction in SEAP activity)	4 fold
TNFR2-Fc-Dectin2 chimeric protein (Examples 10 and 11) (Fc fusion; the values are: fold reduction in SEAP activity)	> 20 fold

From patent US20260139030A1
